In patent US20260008817A1, “CYCLIC PEPTIDE OR SALT THEREOF, AND USES THEREOF” (FUJIFILM Corporation, priority 2023, published 2026):
Positions of bridges follow the written chain, without caps; N, C: chain ends. No end group written: not given here. COCH2 = acetyl group that carries the bridge

What follows are substances tested against T1, Recombinant Human FGFR1 alpha (IIIc) Fc Chimera Protein (Homo sapiens, UniProt P11362) (assay: ELISA binding affinity of enzymatically synthesized peptide to FGFR). Conditions: ELISA luminescence signal at 10 nmol/L peptide, SEQ ID NO: 239 standardized to 1; enzyme synthesis product.
T1 construct: purchased R&D systems 658-FR-050
Outline: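 Cell-free PUREfrex-translated cyclic peptides (Myc/HiBiT-tagged, quantified by HiBiT luminescence) bound 3 h at room temperature to immobilized FGFR1α(IIIc)-Fc, detected with anti-Myc and chemiluminescence. FGFR-specific signal at 10 nmol/L normalized to a reference cyclic peptide and graded A–D.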

T1 sequence (P11362 with tags, fused parts or gaps limits assumed): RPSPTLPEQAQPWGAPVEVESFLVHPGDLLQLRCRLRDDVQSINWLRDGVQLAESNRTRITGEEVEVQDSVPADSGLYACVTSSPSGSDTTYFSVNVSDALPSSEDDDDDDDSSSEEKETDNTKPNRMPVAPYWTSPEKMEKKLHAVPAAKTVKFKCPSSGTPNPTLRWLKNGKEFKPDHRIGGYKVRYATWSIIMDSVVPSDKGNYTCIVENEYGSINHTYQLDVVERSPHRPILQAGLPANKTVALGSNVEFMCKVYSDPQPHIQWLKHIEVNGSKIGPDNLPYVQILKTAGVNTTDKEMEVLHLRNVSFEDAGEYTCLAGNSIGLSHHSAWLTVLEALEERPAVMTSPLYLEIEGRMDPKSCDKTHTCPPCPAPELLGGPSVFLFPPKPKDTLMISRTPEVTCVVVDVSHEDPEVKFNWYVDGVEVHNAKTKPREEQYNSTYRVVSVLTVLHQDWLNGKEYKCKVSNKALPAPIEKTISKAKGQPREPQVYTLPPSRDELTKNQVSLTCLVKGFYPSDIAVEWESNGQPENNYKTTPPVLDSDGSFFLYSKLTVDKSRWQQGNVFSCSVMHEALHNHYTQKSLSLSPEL

Row | Substance | Evaluation result of binding affinity to FGFR
1 | 220 (ICVYTFDAHAHSLHAALQK(COCH2)I; thioether 2-19 (inferred)) [compound 220] | A (0.7 or more)
2 | 221 (ICVYTFDAHAHSLHAALSK(COCH2)I; thioether 2-19 (inferred)) [compound 221] | C (0.1 or more and less than 0.5)
3 | 222 (ICVYTFDAHAHSLHAALEK(COCH2)I; thioether 2-19 (inferred)) [compound 222] | C (0.1 or more and less than 0.5)
4 | 223 (ICVYTFDAHAHSLHAALRK(COCH2)I; thioether 2-19 (inferred)) [compound 223] | A (0.7 or more)
5 | 224 (ICVYTFDAHAHSLHAALHK(COCH2)I; thioether 2-19 (inferred)) [compound 224] | A (0.7 or more)
6 | 225 (ICVYTFDAHAHSLHAALTK(COCH2)A; thioether 2-19 (inferred)) [compound 225] | B (0.5 or more and less than 0.7)
7 | 226 (ICVYTFDAHAHSLHAALTK(COCH2)L; thioether 2-19 (inferred)) [compound 226] | C (0.1 or more and less than 0.5)
8 | 227 (ICVYTFDAHAHSLHAALTK(COCH2)V; thioether 2-19 (inferred)) [compound 227] | A (0.7 or more)
9 | 228 (ICVYTFDAHAHSLHAALTK(COCH2)F; thioether 2-19 (inferred)) [compound 228] | C (0.1 or more and less than 0.5)
10 | 229 (ICVYTFDAHAHSLHAALTK(COCH2)Y; thioether 2-19 (inferred)) [compound 229] | C (0.1 or more and less than 0.5)
11 | 230 (ICVYTFDAHAHSLHAALTK(COCH2)W; thioether 2-19 (inferred)) [compound 230] | A (0.7 or more)

The remaining lines, values ahead:

Row | Evaluation result of binding affinity to FGFR | Substance
12 | C (0.1 or more and less than 0.5) | 231 (ICVYTFDAHAHSLHAALTK(COCH2)N; thioether 2-19 (inferred)) [compound 231]
13 | A (0.7 or more) | 232 (ICVYTFDAHAHSLHAALTK(COCH2)Q; thioether 2-19 (inferred)) [compound 232]
14 | C (0.1 or more and less than 0.5) | 233 (ICVYTFDAHAHSLHAALTK(COCH2)S; thioether 2-19 (inferred)) [compound 233]
15 | C (0.1 or more and less than 0.5) | 234 (ICVYTFDAHAHSLHAALTK(COCH2)T; thioether 2-19 (inferred)) [compound 234]
16 | A (0.7 or more) | 235 (ICVYTFDAHAHSLHAALTK(COCH2)R; thioether 2-19 (inferred)) [compound 235]
17 | A (0.7 or more) | 236 (ICVYTFDAHAHSLHAALTK(COCH2)H; thioether 2-19 (inferred)) [compound 236]
18 | A (0.7 or more) | 237 (VCIYTFNHLAQTYWQSLNK(COCH2)V; thioether 2-19 (inferred)) [compound 237]
19 | C (0.1 or more and less than 0.5) | 238 (VCIWVFNRFAHTLKESLTK(COCH2)V; thioether 2-19 (inferred)) [compound 238]
20 | A (0.7 or more) | 239 (ACVWTFDRHAQEISQALHKV; not fully specified (residue 19, bridges); also: cyclic peptide, ring not given here) [compound 239]
21 | A (0.7 or more) | 240 (ACVYLFNWRATSYGKSLIK(COCH2)W; thioether 2-19 (inferred)) [compound 240]
